Drawing on paper PMC10397247, this text covers interaction score for 3 molecules.

In one assay the target is T1, APC9096-AA.
T1 chain: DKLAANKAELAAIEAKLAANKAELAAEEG
Briefly: two-hybrid library CCmax.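 Note: natural log of median RNA to DNA barcode read ratio; higher means stronger binding.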 The settings on record: mean of both orientations.

A further assay deals with T2, APC2237-AA.
T2 chain: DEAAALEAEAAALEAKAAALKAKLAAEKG
Briefly: two-hybrid library CCmax.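 Note: natural log of median RNA to DNA barcode read ratio; higher means stronger binding.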 The settings on record: mean of both orientations.

A further assay deals with T3, APC2405-AA.
T3 chain: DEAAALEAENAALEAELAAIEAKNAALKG
Briefly: two-hybrid library CCmax.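 Note: natural log of median RNA to DNA barcode read ratio; higher means stronger binding.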 The settings on record: mean of both orientations.

Another assay concerns the target T4, APC7099-AA.
T4 chain: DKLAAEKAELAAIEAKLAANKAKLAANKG
Briefly: two-hybrid library CCmax.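 Note: natural log of median RNA to DNA barcode read ratio; higher means stronger binding.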 The settings on record: mean of both orientations.

In the next assay the target is T5, APC8910-AA.
T5 chain: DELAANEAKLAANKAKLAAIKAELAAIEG
Briefly: two-hybrid library CCmax.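 Note: natural log of median RNA to DNA barcode read ratio; higher means stronger binding.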

For the next assay, the target named is T6, 4H807-AA.
T6 chain: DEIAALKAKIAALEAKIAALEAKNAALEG
Put plainly: two-hybrid library CCmax.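 Note: natural log of median RNA to DNA barcode read ratio; higher means stronger binding.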 The settings on record: mean of both orientations.

A further assay has as its target T7, APC5383-AA.
T7 chain: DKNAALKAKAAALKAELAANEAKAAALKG
Briefly: two-hybrid library CCmax. The settings on record: mean of both orientations.

Another assay deals with T8, APC1434-AA.
T8 chain: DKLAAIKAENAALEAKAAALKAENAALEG
Put plainly: two-hybrid library CCmax. The settings on record: mean of both orientations.

For another assay, the target named is T9, 4H3330-AA.
T9 chain: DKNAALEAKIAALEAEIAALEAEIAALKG
Briefly: two-hybrid library CCmax.

The next assay addresses T10, APC4436-AA.
T10 chain: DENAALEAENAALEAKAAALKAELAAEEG
Briefly: two-hybrid library CCmax. The settings on record: mean of both orientations.

A further assay has as its target T11, APC8191-AA.
T11 chain: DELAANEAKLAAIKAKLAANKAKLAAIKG
Briefly: two-hybrid library CCmax. The settings on record: mean of both orientations.

The target in the next assay is T12, APC232-AA.
T12 chain: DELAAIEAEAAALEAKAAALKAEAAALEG
Put plainly: two-hybrid library CCmax. The settings on record: mean of both orientations.

A further assay has as its target T13, 4H733-AA.
T13 chain: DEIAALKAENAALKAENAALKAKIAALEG
Briefly: two-hybrid library CCmax. The settings on record: mean of both orientations.

The next assay concerns the target T14, APC4264-AA.
T14 chain: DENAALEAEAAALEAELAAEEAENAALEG
Briefly: two-hybrid library CCmax. The settings on record: mean of both orientations.

Another assay has as its target T15, APC4011-AA.
T15 chain: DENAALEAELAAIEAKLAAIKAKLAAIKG
Briefly: two-hybrid library CCmax. The settings on record: mean of both orientations.

Another assay addresses T16, APC1015-AA.
T16 chain: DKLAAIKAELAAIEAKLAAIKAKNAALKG
Briefly: two-hybrid library CCmax. The settings on record: mean of both orientations.

For a further assay, the target named is T17, APC3645-AA.
T17 chain: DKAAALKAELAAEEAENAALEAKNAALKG
Put plainly: two-hybrid library CCmax. The settings on record: mean of both orientations.

The next assay has as its target T18, APC6108-AA.
T18 chain: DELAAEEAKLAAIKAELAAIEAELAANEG
Put plainly: two-hybrid library CCmax. The settings on record: mean of both orientations.

In a further assay the target is T19, APC9319-AA.
T19 chain: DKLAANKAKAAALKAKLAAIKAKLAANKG
Briefly: two-hybrid library CCmax. The settings on record: mean of both orientations.

In the next assay the target is T20, 4H716-AA.
T20 chain: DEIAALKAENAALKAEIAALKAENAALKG
Put plainly: two-hybrid library CCmax. The settings on record: mean of both orientations.

Another assay has as its target T21, P4bHq.
T21 chain: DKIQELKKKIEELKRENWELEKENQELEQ
Briefly: two-hybrid library CCNG1.

For another assay, the target named is T22, P7bHq.
T22 chain: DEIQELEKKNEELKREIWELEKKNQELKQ
Put plainly: two-hybrid library CCNG1.

For the next assay, the target named is T23, P9bHq.
T23 chain: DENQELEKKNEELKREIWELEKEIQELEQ
Put plainly: two-hybrid library CCNG1.

A further assay deals with T24, P6bHq.
T24 chain: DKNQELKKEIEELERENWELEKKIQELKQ
Briefly: two-hybrid library CCNG1.

A further assay addresses T25, P8bHq.
T25 chain: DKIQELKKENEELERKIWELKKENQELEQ
Briefly: two-hybrid library CCNG1.

Another assay deals with T26, P5bHq.
T26 chain: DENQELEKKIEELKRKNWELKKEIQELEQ
Put plainly: two-hybrid library CCNG1.

Turning to DKNAALEAKIAALEAEIAALEAEIAALKG [4H3330-AA], the interaction score was -1.65 with APC9096-AA; -0.433 in the assay with APC2237-AA; -1.07 with APC2405-AA; -1.98 in the assay with APC7099-AA; -0.0896 with APC8910-AA; -1.35 in the assay with 4H807-AA. In addition, the interaction score in the assay with APC5383-AA is -1.16; with APC1434-AA it was -1.62; in the assay with 4H3330-AA, 1.32; with APC4436-AA, -1.42; with APC8191-AA it was 1.43; in the assay with APC232-AA, -1.1. In addition, the interaction score is -1.48 in the assay with 4H733-AA; -1.37 with APC4264-AA; 2.04 in the assay with APC4011-AA; -0.658 in the assay with APC1015-AA; -1.25 with APC3645-AA; 0.0413 with APC6108-AA. Further, the interaction score with APC9319-AA was 0.302; in the assay with 4H716-AA it was -1.14.
For DEIQELEKEIEELERKNWELKKKNQELKQ [P3bHq], the interaction score with P4bHq is 1.75; with P7bHq, 0.482; with P9bHq, -0.595; in the assay with P6bHq, -0.227; in the assay with P8bHq, 0.414; in the assay with P5bHq, 1.1.
Take DKIQELKKKIEELKRENWELEKENQELEQ [P4bHq]: the interaction score in the assay with P4bHq is -0.613; with P7bHq, -1.11; with P9bHq, -0.875; with P6bHq it was -0.00957; with P8bHq, -0.273; with P5bHq, -1.27.
